# From the supplement of paper PMC10567573
# ± gives the standard deviation.
# Experiment: protein stability index of a GFP-peptide fusion (GPS, HEK-293T) (PSI 1-6); higher = more stable
# Settings: c terminus: a fixed tail appended
# 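Further: 24-mer peptide tiles fused after GFP, lentivirally expressed, FACS-sorted into six equal bins by GFP/DsRed ratio, decoded by Illumina sequencing, PSI is the read-weighted mean bin number.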
Sequence,protein stability index (treatment: DMSO),"protein stability index (treatment: MLN4924 1 uM, 8 h)"
WQAKREEEEEEEEEAEAGEEAVPE [CHGA],5.6 ± 0.47,5.7 ± 0.22
QAFCCENDINILRVSNPGRLAELL [GADD45A],2.74 ± 0.36,2.82 ± 0.34
SRLLGSASPSSSVRLGSFRSPRAG [PRPH],4.08 ± 0.19,3.96 ± 0.18
EEHTTILRPSYTGLSSSSARFLSR [CDC14A],3.57 ± 0.12,3.7 ± 0.19
LLLLSKAKLVPSEREASPSNSCQD [IKZF1],3.31 ± 0.099,3.14 ± 0.15
KVLLCHGELRSKSGHKLYIFLFQD [NET1],2.62 ± 0.55,2.57 ± 0.57
FGRYLEHLEVKFMNPYNAVLTKKF [FBXO39],2.24 ± 0.45,2.04 ± 0.16
MPAATVDHSQRICEVWACNLDEEM [CNOT7],4.65 ± 0.41,4.77 ± 0.28
PATSPLVLAIPRRLRVELECEEGE [TRIM35],4.92 ± 0.22,4.78 ± 0.13
CRKAKEIRKERKRLKLMQQNPAGE [ATE1],4 ± 0.25,4.37 ± 0.2
LELQRQREARKRALARKQAQEQLR [RSPH3],3.95 ± 0.31,4.06 ± 0.49
AGLFSQEQYERNKSSSSSSSSSSS [TMEM40],5.16 ± 0.083,5.32 ± 0.2
SRNFGVRNQGNFSVVGTVLAATQA [ZC2HC1C],2.96 ± 0.19,3.16 ± 0.12
LPSLGLPQYRSYFMECLVDARMLD [PPFIA4],2.47 ± 0.46,2.13 ± 0.38
SEDEEEYESGYAFLPDLLIFQMVI [SMG5],2.76 ± 0.62,2.59 ± 0.53
KNHSTVTVEEAKAEKETELSLQKE [TRIM29],5.57 ± 0.24,5.58 ± 0.23
VASEMRFVQDLVRALEQEKLQGVE [DAPK3],4.42 ± 0.44,4.73 ± 0.37
MQGNQILVFPSSSSSSSSQAPGQP [ZBTB22],4.28 ± 0.24,4.22 ± 0.22
EEDCAWSQELPPPDPGPSPEASHL [ZNF263],5.44 ± 0.25,5.58 ± 0.25
VESFKTKVSYLKQKGLGGAMVWAL [CHIT1],2.54 ± 0.49,2.7 ± 0.56
EFMKTLEKTGPQLTSRIKGDWIGL [DENND6A],2.06 ± 0.23,2.23 ± 0.25
VKKNSAKSMGLKKKAFVWARNIGF [ACSBG2],2.03 ± 0.12,2.24 ± 0.22
EYMETGSLEKLLASEPLPWDLRFR [RIPK4],2.76 ± 0.3,3.27 ± 0.6

Sequence,protein stability index (treatment: DMSO),"protein stability index (treatment: MLN4924 1 uM, 8 h)"
GAVIEVFGHRFIILDTDEYVLKYM [EFHC1],2.5 ± 0.56,2.27 ± 0.67
FPKKLAFAYLEDLHSEFDEQHGKK [SEC22B],2.89 ± 0.28,3.26 ± 0.38
HLGCAVYQDMIYAVGGRDDTTELS [KLHL20],3.39 ± 0.14,3.38 ± 0.17
FKAEVDPLSDKGTTPLQLAIIRER [ASB7],3.82 ± 0.34,3.85 ± 0.25
MGIYQMYLCFLLAVLLQLYVATEA [SLC22A15],2.92 ± 0.38,2.84 ± 0.41
KDLSNTFAKLEKLTILAKRKSLFD [STX5],2.45 ± 0.16,2.51 ± 0.32
VSWFGSPTTSFLSISKLSPFSEFF [PWWP2B],2.32 ± 0.62,2.35 ± 0.41
HAGQGGLFYSAEVEMLCDQAWGSM [CCDC3],2.53 ± 0.77,2.47 ± 0.39
HSKASLPTGEGSISHEEQKSVRLA [CHCHD6],5.14 ± 0.2,5.15 ± 0.17
HQRIHTGEKPFECNECGKAFRWGA [ZNF232],2.64 ± 0.5,2.61 ± 0.67
KARVLRSKSLCHDEIENLLDSDHR [CDC25B],4.4 ± 0.13,4.62 ± 0.15
RSFVEKHRWPSNMYLKQLAEYRKY [RHOBTB3],2.38 ± 0.24,2.62 ± 0.74
GKLKWNLAAVTPHDFIEHILRKLP [CCND2],2.61 ± 0.38,2.16 ± 0.18
ETAIADAEQRGDNALKDARAKLDE [KRT71],5.57 ± 0.21,5.41 ± 0.54
GREKPGPLDFEAYSAAALQEAMKR [FCHO1],4.21 ± 0.27,4.26 ± 0.18
PVMNGGVQTWTQPRLCYLVKEGGS [PDZK1],2.75 ± 0.23,3.09 ± 0.27
TEQSSASRLMRRHKRRRRKQKVSR [DVL3],5.13 ± 0.24,5.16 ± 0.22
DTMRQINKKGFWSYGPVILVVLVV [TOR1AIP2],2.49 ± 0.48,2.42 ± 0.37
SLDEFRQTWKLFSSHMNIDITDDC [PPEF2],2.49 ± 0.3,2.75 ± 0.21
ASGVGFILGPVVGGYLTELEDGFY [MFSD9],2.05 ± 0.62,2.17 ± 0.23
APTPPSLSQRVMCNDLFKVNPFQL [TIAF1],2.11 ± 0.25,2.25 ± 0.28
IPVLYCMVFIAGILLNGVSGWIFF [P2RY14],3.28 ± 0.64,2.9 ± 0.37
CLAKGTFSDVTFILDDGTISAHKP [RHOBTB2],2.36 ± 0.27,2.46 ± 0.17

Sequence,protein stability index (treatment: DMSO),"protein stability index (treatment: MLN4924 1 uM, 8 h)"
RRSVRKNHMYSCRFSRQCVVDKDK [HNF4A],3.02 ± 0.24,3.2 ± 0.24
DKLALCHLELTRKLQDLIKDVLRY [FCHO1],2.9 ± 0.48,2.74 ± 0.43
SSSSGRLSEPDPSHTLEERVVHWY [SMOC2],3.14 ± 0.38,3.1 ± 0.22
TITTAAATSVTVPGAGVPSGSGGT [ZBTB22],4.9 ± 0.19,4.85 ± 0.26
ALATLRVLRGLARPEHPPPAPTGQ [TMEM175],3.09 ± 0.22,3.09 ± 0.39
WPFSMDCTGTEAHISSCKLGPQVS [LOXL2],3.02 ± 0.25,3.08 ± 0.34
HYAGQDATDPFVAFHINKGLVKKY [FADS1],3.21 ± 0.26,3.14 ± 0.11
DFSVSLKASGKNKHFKVQLVDNVY [NCK2],2.27 ± 0.25,2.25 ± 0.19
SICMRMEILGCPLPDPNNYYHRRN [CPXM2],2.68 ± 0.27,2.46 ± 0.24
KPYAVMVFQTEQKNLFRLEMDMVV [N4BP2L1],2.7 ± 0.1,2.96 ± 0.88
GYSTHADFVLEMNTAKSTSRVTAF [NLN],2.29 ± 0.2,2.51 ± 0.12
KGSLPQPPITEVESQVFSEKLATD [ZNF232],5.44 ± 0.17,5.24 ± 0.24
HLCLRKADQKLVIIKQIPVEQMTK [NEK8],2.46 ± 0.19,2.75 ± 0.23
VKWMVVFAIGVCTGLVGLFVDFFV [CLCN6],2.16 ± 0.31,2.42 ± 0.46
SSSQEIPTMPQPIEKVSVSTQTKK [ZMYND11],5.33 ± 0.42,5.37 ± 0.23
APPTPPEEEDLRRRLKYFFMSPCD [MCOLN1],4.27 ± 0.23,4.15 ± 0.23
PDGVCLSGGRGPQGDKAIREQGPR [PBXIP1],5.21 ± 0.14,4.88 ± 0.35
ASHLGNELEGTEELCCVAELDNPM [C2CD2L],5.2 ± 0.23,5.25 ± 0.18
DNPLDRPLVGQDEFFLEQTKKKGV [NOP53],5.25 ± 0.3,5.37 ± 0.22
KDYNNLWIIKKHNTNSDPLDPSFP [POMT2],3.15 ± 0.19,3.29 ± 0.26
NYMVQTEDQYIFIHDALLEAVTCG [PTPRD],2.25 ± 0.35,2.13 ± 0.37
ESETRKAAKRMRLEIYQSSQDEPI [NOL4L],4.58 ± 0.071,4.65 ± 0.24
AATRGGSHLQAAAQTPPRPGPPSA [SCNN1D],4.93 ± 0.21,4.84 ± 0.1

Sequence,protein stability index (treatment: DMSO),"protein stability index (treatment: MLN4924 1 uM, 8 h)"
APQHPQPGSQALPAPALAPDQLPQ [FBXO28],5.13 ± 0.32,5.04 ± 0.29
ASGKLRKKKKKQKNKKSSTGEASE [TCF25],4.9 ± 0.23,
QSSADGSQPPKKKPKTTNIELQGV [RBBP5],5.09 ± 0.16,5.26 ± 0.36
LSMNWAIVADILLYVVIPTRRSTA [SPNS1],2.63 ± 0.62,3.01 ± 0.77
AAPAGSLSRKKRLELDDNLDTERP [TRIB3],5.25 ± 0.33,5.27 ± 0.14
TPIPWLSSGEPVDYNVDIGIPLDG [MYOZ1],3.98 ± 0.19,4.07 ± 0.2
LEAGLPLQVRGYPEEKKEEEGSAN [CHGA],5.61 ± 0.35,5.79 ± 0.15
EQTFSPAKSLSFRKGELVTASKAI [ADD1],3.99 ± 0.17,4.14 ± 0.28
SQFLKLKTSVEKANAQIQILTRSW [CD207],2.19 ± 0.59,2.09 ± 0.29
RETLKRKVSGNRCASPVTGPGSKR [ESR2],3.92 ± 0.32,4.1 ± 0.2
SNASEDTRRLRLAHVGMELQLKQE [SCARA5],4.29 ± 0.33,4.4 ± 0.29
LRKGFSCVKNELLPSHPLELSEKN [POMP],3.61 ± 0.094,3.75 ± 0.24
FLLAFGLMIIVCIDQWKNKIWPEI [RETREG3],2.94 ± 0.4,3.09 ± 0.35
LEALHLEALCEEDLLLWIQKHTEV [DENND6A],2.68 ± 0.17,2.84 ± 0.67
YLHPNSYSCACLASGSVLRLVDAV [HDAC6],2.82 ± 0.36,2.32 ± 0.066
RGAQGVILVYDIANRWSFEGMDRW [RAB40A],2.57 ± 0.37,2.28 ± 0.28
EYQCQNLYQLEGNNQITCRNGQWS [CFHR2],3.09 ± 0.14,3.03 ± 0.21
MKDRTQELRTAKDSDDDDDVAVTV [STX1A],5.11 ± 0.33,5.43 ± 0.32
VYDNEKKLQLQLNETKSQAFVSNS [PLD5],4.48 ± 0.47,4.33 ± 0.19
ITTNRFYGPQVNNISHTKEKKKGK [WASL],4.17 ± 0.42,4.37 ± 0.29
KELCAMSEEQFRQRSPLGGDVLHA [SPDEF],3.88 ± 0.27,3.87 ± 0.13
